According to US11643670B2, “Methods of enhancing chromosomal homologous recombination” (Massachusetts Institute of Technology, priority 2018, dated 2023):

Tested on: maternal Chd2 locus
Assay: Donor-free interchromosomal homologous recombination (ICHR) in IVF-derived Chd2^R1684H/+ embryos
Format: cell-based, mouse
Description: tracrRNA, crRNAs, and ssODNs were synthesized by Integrated DNA Technologies (TABLE 1). All injection mixtures were prepared in a final volume of 50 μL according to the following methodology: Using RNase-free water, reagents, and consumables, crRNA (final concentration 0.61 μM), tracrRNA (final concentration 0.61 μM), and ultrapure Tris-HCl, pH 7.39 (final concentration 10 mM, ThermoFisher) were mixed and incubated at 95° C. for 5 minutes. The mixtures were cooled to room temperature for 10 minutes on the benchtop, and then, EnGen Cas9-NLS S. pyogenes (New England Biolabs) was added to a final concentration of 30 ng/μL. The mixtures were incubated at 37° C. for 15 minutes before adding any remaining components: ssODN (final concentration 3 ng/μL or 30 ng/μL), RAD51 (Creative Biomart, final concentration 10 ng/μL). Injection mixtures were stored on ice and briefly heated to 37° C. prior to injection. For experiments utilizing RS-1, embryos were cultured in KSOM-AA (EMD Millipore MR-121-D) with […] RS-1 (Sigma) dissolved in DMSO or DMSO (Sigma, 1:1000) for 24 hours, washed, and cultured in EmbryoMax FHM HEPES Buffered Medium (Sigma) until collection for genotyping.
For experiments using wildtype recombinant proteins, the following proteins were used: RAD51 (Creative Biomart RAD51-134H), USP1/WDR48 (Creative Biomart USP1&WDR48-1067H), BCCIP (Origene TP303061), XRCC1 (TP304952), XRCC4 (Origene TP312684), DMC1 (Origene TP318311). For experiments using mutant RAD51, custom RAD51 preparations were produced by Creative Biomart according to their standard protocol for producing the wildtype RAD51 used in all other experiments. Mutant DNA sequences used for cloning are described in TABLE 2. All RAD51 mutants were modeled in human RAD51 transcript variant 4 (NCBI accession NM_001164269), as this is the transcript variant of the wildtype RAD51-134H protein used in all other experiments.
In vitro fertilization was performed using FERTIUP® Mouse Preincubation Medium and CARD MEDIA (Kyudo Company) according to the manufacturer's protocol. Non-virgin Chd2^R1684H/R1684H males that were >8 weeks old were used as sperm donors. Following IVF, embryos were cultured for 8 hours and then injected using the PNI protocol described below.
For all experiments except those described in FIG. 6, the male pronucleus was injected. Injections performed for the CPI portion of FIG. 6 were targeted to the cytoplasm. All microinjections were performed using a Narishige Micromanipulator, Nikon Eclipse TE2000-S microscope, and Eppendorf 5242 microinjector. Individual zygotes were injected with 1-2 pL of injection mixture using an “automatic” injection mode set according to needle size and adjusted for clear increase in pronuclear volume. Following injections, cells were cultured in KSOM-AA until collection for genotyping. For experiments giving rise to F0 animals, embryos were surgically implanted into pseudopregnant CD-1 females (Charles River Laboratories, Strain Code 022) 24-hours post-injection and allowed to develop normally until natural birth.
Embryos were collected at morula-to-blastocyst stage in 4 μL nuclease-free water. After collection, 4 μL of 2× embryo digestion buffer was added to each sample (final concentrations: 125 μg/mL proteinase K, 100 mM Tris-HCl pH 8.0, 100 mM KCl, 0.02% gelatin, 0.45% Tween-20, 60 μg/mL yeast tRNA) and embryos were lysed for 1 hour at 56° C. Proteinase K was inactivated via incubation at 95° C. for 10 minutes and DNA was stored at −20° C. until use.
Chd2^R1684H genotyping was performed via a two-step, nested approach. Except for experiments described in FIGS. 3A-3G, all 8 μL of embryo DNA were used as input for the initial, long round of PCR. Genotyping of mouse pups and adult animals was performed using 2 μL of purified tail DNA. For all embryo genotyping, reactions mixtures were set up in a UV-sterilized laminar flow hood using sterile reagents and filter tips to avoid contamination. […]

[1] = compared to embryos injected with wildtype RAD51

B1: G151D: recombinant RAD51 gain-of-function mutant with increased strand exchange activity, SEQ ID NO: 8 (protein)
chain: MAMQMQLEANADTSVEEESFGPQPISRLEQCGINANDVKKLEEAGFHTVEAVAYAPKKELINIKGISEAKADKILTESRSVARLECNSVILVYCTLRLSGSSDSPASASRVVGTTGGIETGSITEMFGEFRTGKTQICHTLAVTCQLPIDRDGGEGKAMYIDTEGTFRPERLLAVAERYGLSGSDVLDNVAYARAFNTDHQTQLLYQASAMMVESRYALLIVDSATALYRTDYSGRGELSARQMHLARFLRMLLRLADEFGVAVVITNQVVAQVDGAAMFAADPKKPIGGNIIAHASTTRLYLRKGRGETRICKIYDSPCLPEAEAMFAINADGVGDAKD
Q: B1 was tested. Which “efficiency of ICHR stimulation” value did it give?
A: Its value is roughly 100%.

Q: What about the “indel-to-ICHR ratio (level)” value of the same molecule?
A: The value was “near zero”.

Q: What about the indel events (27 injected zygotes) of the same molecule?
A: The indel events was “not a single indel event was identified”.

Q: What about the apparent editing efficiency (blastocysts from Cas9/crRNA/tracrRNA-injected embryos) of the same molecule?
A: Its apparent editing efficiency is 22%.

Q: What about the “ICHR rate compared with baseline (Cas9-only embryos)” value (co-injected with Cas9/crRNA/tracrRNA, no donor) of the same molecule?
A: The value was “ICHR was observed in all edited cells”.

Q: What about the indel-to-ICHR ratio (compared to control embryos) of the same molecule?
A: Its indel-to-ICHR ratio is “drastic decrease”.

Q: And the overall indel rate (compared to control embryos)?
A: The overall indel rate was “drastic decrease”.

Q: What about the indel-to-ICHR ratio [1] of the same molecule?
A: Its indel-to-ICHR ratio is “significant decreases”.

Q: What about the overall indel rate [1] of the same molecule?
A: The overall indel rate was “significant decreases”.
